Measurements from patent publication US20250268994A1.

Target: delta (India) variant S glycoprotein of SARS-CoV-2 (SARS-CoV-2) (UniProt P0DTC2)
Test: cell-based or functional assay

| Substance | Preliminary Estimate of IC50 (nM), RVP neutralization [nM] |
| --- | --- |
| hsACE2 H374N H378N (variant polypeptide encoded by SEQ ID NO: 6) (from UniProt Q9BYF1 18-740) (receptor) | 8.29 |
| hsACE2 N90D R273A (variant polypeptide encoded by SEQ ID NO: 4) (from UniProt Q9BYF1 18-740) (receptor) | 2.74 |
| hsACE2 N90D T92A (variant polypeptide encoded by SEQ ID NO: 5) (from UniProt Q9BYF1 18-740) (receptor) | 2.33 |
